Assay results reported in publication PMC4176361.

How the values were obtained:
[1] = molecular target: His-tagged RctB fragment C157 (Vibrio cholerae); experiment: SEC; Superdex 200 10/300 GL in RctB buffer; molar mass from peak position against protein standards
[2] = molecular target: His-tagged RctB fragment C157 (Vibrio cholerae); experiment: AUC; sedimentation velocity, 50 000 rpm, 20°C; 0.3M NaCl, 0.025M Tris-HCl (pH 8.0), 0.0005M EDTA, 5% (v/v) glycerol; C137, C157 and C208 loaded at 3.6, 15 and 5.8 μM
[3] = molecular target: His-tagged RctB fragment C208 (Vibrio cholerae); experiment: SEC; Superdex 200 10/300 GL in RctB buffer; molar mass from peak position against protein standards
[4] = molecular target: His-tagged RctB fragment C208 (Vibrio cholerae); experiment: AUC; sedimentation velocity, 50 000 rpm, 20°C; 0.3M NaCl, 0.025M Tris-HCl (pH 8.0), 0.0005M EDTA, 5% (v/v) glycerol; C137, C157 and C208 loaded at 3.6, 15 and 5.8 μM

Substance | stoichiometry N [1] | stoichiometry N [2] | stoichiometry N [3] | stoichiometry N [4]
His-tagged RctB fragment C157 (domain or fragment) | 2 | 2 | – | –
His-tagged RctB fragment C208 (domain or fragment) | – | – | 2 | 2
